Article PMC3714855
Several values for one entry are separate records, joined by “and”; a condition that tells them apart may be missing. Equal entries are not always repeated. One block for each substance: values may come before it.

Legend:
[1] = target: GluA1(E809W) with a C-terminal GFP tag (rat); assay: SEC
[2] = target: GluA1(L795W) with a C-terminal GFP tag (rat); assay: SEC
[3] = target: GluA2(Q)(A806W) with a C-terminal GFP tag (rat); assay: SEC
[4] = target: GluA2(Q)(E813W) with a C-terminal GFP tag (rat); assay: SEC
[5] = target: GluA2(Q)(G802W) with a C-terminal GFP tag (rat); assay: SEC
[6] = target: GluA2(Q)(L811W) with a C-terminal GFP tag (rat); assay: SEC
[7] = target: GluA2(Q)(V795W) with a C-terminal GFP tag (rat); assay: SEC
GluA2(R)(E813W) (rat) = assay: native gel or EMSA
GluA2(R)(G802W) (rat) = assay: native gel or EMSA
GluA2(R)(L811W) (rat) = assay: native gel or EMSA
GluA2(R)(V795W) (rat) = assay: native gel or EMSA
[8] = target: GluA2(R)-ΔM4, untagged (rat); assay: native gel or EMSA
HA-GluA2(R)-ΔM4 (rat) = assay: native gel or EMSA
[9] = target: HA-tagged wild-type GluA2(R) (rat); assay: native gel or EMSA
[10] = target: wild-type GluA1 with a C-terminal GFP tag (rat); assay: SEC
[11] = target: wild-type GluA2(Q) with a C-terminal GFP tag (rat); assay: SEC
[12] = target: wild-type GluA2(R), untagged (rat); assay: native gel or EMSA

Substance: GluA2(Q)(A806W) with a C-terminal GFP tag (receptor)
stoichiometry N [3]: 2

Substance: GluA2(Q)(G802W) with a C-terminal GFP tag (receptor)
stoichiometry N [5]: 2

Substance: GluA2(Q)(V795W) with a C-terminal GFP tag (receptor)
stoichiometry N [7]: 2

Substance: GluA2(R)(L811W) (receptor)
stoichiometry N (GluA2(R)(L811W) (rat)): 4 and 2

Substance: GluA2(R)(V795W) (receptor)
stoichiometry N (GluA2(R)(V795W) (rat)): 2

Substance: HA-GluA2(R)-ΔM4 (domain or fragment)
stoichiometry N (HA-GluA2(R)-ΔM4 (rat)): 2

Substance: HA-tagged wild-type GluA2(R) (receptor)
stoichiometry N [9]: 4 and 2

Substance: wild-type GluA1 with a C-terminal GFP tag (receptor)
stoichiometry N [10]: 4

Substance: wild-type GluA2(Q) with a C-terminal GFP tag (receptor)
stoichiometry N [11]: 4

Substance: wild-type GluA2(R), untagged (receptor)
stoichiometry N [12]: 4 and 2

Other lines, results leading:

stoichiometry N [1]: 2
Substance: GluA1(E809W) with a C-terminal GFP tag (receptor)

stoichiometry N [2]: 2
Substance: GluA1(L795W) with a C-terminal GFP tag (receptor)

stoichiometry N [4]: 2
Substance: GluA2(Q)(E813W) with a C-terminal GFP tag (receptor)

stoichiometry N [6]: 4
Substance: GluA2(Q)(L811W) with a C-terminal GFP tag (receptor)

stoichiometry N (GluA2(R)(E813W) (rat)): 2
Substance: GluA2(R)(E813W) (receptor)

stoichiometry N (GluA2(R)(G802W) (rat)): 2
Substance: GluA2(R)(G802W) (receptor)

stoichiometry N [8]: 2
Substance: GluA2(R)-ΔM4, untagged (domain or fragment)
